Measurements from patent publication EP1947117A2 (THE UNITED STATES GOVERNMENT as represented by THE …, dated 2008).

Legend:
[1] = target: human TSH receptor on CHO cells (CHO-hTSHR clone JP09) (human, UniProt P16473 21-764); assay: cell-based or functional assay
[2] = target: hCG receptor on MA-10 cells (transformed murine Leydig cells) (murine, UniProt P30730 27-700); assay: cell-based or functional assay
hCG receptor on MA-10 cells (transformed murine Leydig cells), sequence (P30730 27-700): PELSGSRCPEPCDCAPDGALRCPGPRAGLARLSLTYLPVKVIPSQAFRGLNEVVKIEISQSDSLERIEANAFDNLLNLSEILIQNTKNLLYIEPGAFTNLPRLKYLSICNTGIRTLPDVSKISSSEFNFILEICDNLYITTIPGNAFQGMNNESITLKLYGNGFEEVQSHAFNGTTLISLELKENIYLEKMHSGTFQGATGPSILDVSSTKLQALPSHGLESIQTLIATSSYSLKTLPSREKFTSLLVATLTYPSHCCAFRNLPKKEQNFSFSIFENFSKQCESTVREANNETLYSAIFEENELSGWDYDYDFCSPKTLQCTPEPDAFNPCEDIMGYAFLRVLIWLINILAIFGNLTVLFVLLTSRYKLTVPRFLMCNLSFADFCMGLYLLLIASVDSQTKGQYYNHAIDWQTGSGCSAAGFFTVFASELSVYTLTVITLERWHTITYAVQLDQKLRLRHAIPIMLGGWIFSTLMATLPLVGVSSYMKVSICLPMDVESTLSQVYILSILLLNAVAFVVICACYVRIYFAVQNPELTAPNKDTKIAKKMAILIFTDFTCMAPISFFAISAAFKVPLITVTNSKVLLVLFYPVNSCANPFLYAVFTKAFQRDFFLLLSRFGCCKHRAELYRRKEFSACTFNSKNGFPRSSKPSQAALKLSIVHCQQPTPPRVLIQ

Binder	cAMP stimulation in JP09 cells, EC50 [1] [ng/mL]	cAMP stimulation in JP09 cells, relative potency (WT=1) [1]	Progesterone synthesis in MA 10 cells, EC50 [2] [ng/mL]
WT-hTSH (wild-type recombinant human thyroid stimulating hormone) (ligand) chain 1: not shown chain 2: FCIPTEYTMHIERRECAYCLTINTTICAGYCMTRDINGKLFLPKYALSQDVCTYRDFIYRTVEIPGCPLHVAPYFSYPVALSCKCGKCNTDYSDCIHEAIKTNYCTKPQKSY	6.7	1 fold (WT=1)	–
WT-hCG (wild-type recombinant human chorionic gonadotropin) (ligand) chain 1: not shown chain 2: SKEPLRPRCRPINATLAVEKEGCPVCITVNTTICAGYCPTMTRVLQGVLPALPQVVCNYRDVRFESIRLPGCPRGVNPVVSYAVALSCQCALCRRSTTDCGGPKDHPLTCDDPRFQDSSSSKAPPPSLPSPSRLPGPSDTPILPQ	–	–	6.9
